We go through 1 molecule from article PMC9371921, “Strand annealing and motor driven activities of SMARCAL1 and ZRANB3 are stimulated by RAD51 and the paralog complex” (Nucleic Acids Research, 2022).

The target of this series is T1, RAD51B;RAD51C;RAD51D;XRCC2 (Homo sapiens;Homo sapiens;Homo …, UniProt O15315;O43502;O75771;O43543 1-384;1-376;1-328;1-280, |||).
T1 sequence 1: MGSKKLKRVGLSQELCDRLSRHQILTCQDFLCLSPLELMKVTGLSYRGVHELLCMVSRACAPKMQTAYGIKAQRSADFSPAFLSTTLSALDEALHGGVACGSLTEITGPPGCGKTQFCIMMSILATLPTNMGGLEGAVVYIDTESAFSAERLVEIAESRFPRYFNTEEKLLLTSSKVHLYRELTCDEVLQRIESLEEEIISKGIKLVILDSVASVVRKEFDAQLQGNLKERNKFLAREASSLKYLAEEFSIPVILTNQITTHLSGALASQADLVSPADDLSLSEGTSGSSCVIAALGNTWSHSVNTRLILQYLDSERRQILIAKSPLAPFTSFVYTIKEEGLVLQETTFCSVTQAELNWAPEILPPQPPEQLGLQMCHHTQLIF
T1 sequence 2: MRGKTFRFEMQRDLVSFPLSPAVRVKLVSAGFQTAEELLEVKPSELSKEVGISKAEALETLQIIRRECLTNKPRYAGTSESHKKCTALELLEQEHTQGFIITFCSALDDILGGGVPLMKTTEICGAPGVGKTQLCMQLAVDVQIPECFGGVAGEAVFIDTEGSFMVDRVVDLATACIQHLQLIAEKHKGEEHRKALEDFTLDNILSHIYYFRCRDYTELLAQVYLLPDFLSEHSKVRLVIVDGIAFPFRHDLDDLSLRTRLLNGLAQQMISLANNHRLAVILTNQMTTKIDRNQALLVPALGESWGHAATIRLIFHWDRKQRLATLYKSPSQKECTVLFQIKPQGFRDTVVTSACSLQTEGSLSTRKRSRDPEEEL
T1 sequence 3: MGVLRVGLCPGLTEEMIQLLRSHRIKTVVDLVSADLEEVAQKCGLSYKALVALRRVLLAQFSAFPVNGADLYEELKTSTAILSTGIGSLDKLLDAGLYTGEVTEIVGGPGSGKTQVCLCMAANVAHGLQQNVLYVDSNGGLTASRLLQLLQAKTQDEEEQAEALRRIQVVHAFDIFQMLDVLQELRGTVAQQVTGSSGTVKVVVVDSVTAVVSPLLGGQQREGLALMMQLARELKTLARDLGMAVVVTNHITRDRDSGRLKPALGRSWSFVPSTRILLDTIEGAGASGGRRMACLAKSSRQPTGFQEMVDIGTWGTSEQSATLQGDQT
T1 sequence 4: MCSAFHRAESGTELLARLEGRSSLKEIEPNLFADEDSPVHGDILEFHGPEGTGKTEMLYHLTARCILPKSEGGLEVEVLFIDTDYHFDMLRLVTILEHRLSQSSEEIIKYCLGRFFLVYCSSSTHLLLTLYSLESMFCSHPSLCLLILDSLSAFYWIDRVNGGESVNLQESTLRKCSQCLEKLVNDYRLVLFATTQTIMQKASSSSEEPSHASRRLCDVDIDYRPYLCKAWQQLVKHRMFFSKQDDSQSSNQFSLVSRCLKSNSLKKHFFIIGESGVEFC
Briefly: EMSA; 1 mM ATP, 1 mM Mg acetate; EMSA: 1 nM DNA, 20 mM Tris-acetate pH 7.5, 1 mM DTT, 1 mM magnesium acetate, 0.1 mg/ml BSA, 1 mM ATP, 30 min at 37 C; 6% PAGE in 1x TBE at 4 C. To be noted: protein: recombinant;recombinant;recombinant;recombinant; tags: FLAG;10xHis;none;none; copies: 1;1;1;1; label: 5'-32P. On the technique in general: In EMSA bound probe runs differently from free probe, usually more slowly.

B1: 70-mer ssDNA (PC210) (ssDNA)
DNA: GTAAGTGCCGCGGTGCGGGTGCCAGGGCGTGCCCTTGGGCTCCCCGGGCGCGTACTCCACCTCATGCATC
With B1, the binding result was “binds”.
